Assay results reported in patent US20030092885A1, “Solubility and stability enhancement tag for structural and ligand binding studies of proteins” (President and Fellows of Harvard College, priority 2001, published 2003).

B1: DFF45 NTD: N-terminal domain of human DNA fragmentation factor 45, unfolded when free (protein, UniProt O00273 1-116, looked up, fragment)
chain: MEVTGDAGVPESGEIRTLKPCLLRRNYSREQHGVAASCLEDLRSKACDILAIDKSLTPVTLVLAEDGTIVDDDDYFLCLPSNTKFVALASNEKWAYNNSDGGTAWISQESFDVDET
B2: FAIM protein: 20 kDa apoptosis inhibitor in b cells, untagged (protein, UniProt Q9NVQ4 2-179, looked up)
Fas apoptotic inhibitory …: TDLVAVWDVALSDGVHKIEFEHGTTSGKRVVYVDGKEEIRKEWMFKLVGKETFYVGAAKTKATINIDAISGFAYEYTLEINGKSLKKYMEDRSKTTNTWVLHMDGENFRIVLEKDAMDVWCNGKKLETAGEFVDDGTETHFSIGNHDCYIKAVSSGKRKEGIIHTLIVDNREIPEIAS

How the values were obtained:
[1] = Solubility of target protein or complex with and without the small solubility and stability enhancing tag; assay type: physicochemical
[2] = Solution stability (time until the sample precipitates) with and without the tag; assay type: physicochemical; conditions: FAIM, 25° C.

Molecule	solubility ([1]; FIG. 4 legend) [µM]	can be concentrated up to ([1]; FAIM)	time until precipitation from solution / stable in solution [2]
B1	200		
B2		up to 1 mM	one week
